Target: SARS-CoV-2 RBD fused to mouse Fc (RBD-mFc) (SARS-CoV-2, UniProt P0DTC2)
Experiment: BLI

Row | Binder | binding result
1 | COV2-2196 (human mAb) (antibody, V domains shown) VH: QMQLVQSGPEVKKPGTSVKVSCKASGFTFMSSAVQWVRQARGQRLEWIGWIVIGSGNTNYAQKFQERVTITRDMSTSTAYMELSSLRSEDTAVYYCAAPYCSSISCNDGFDIWGQGTMVTVSS VL: not shown | binds
2 | COV2-2165 (human mAb) (antibody, V domains shown) VH: EVQLVESGGGLVQPGGSLRLSCAASGLTVRSNYMTWVRQTPGKGLEWVSVIYSGGSTFYADSVKGRFTISRDNSKNTVYLQMNSLRAEDTAVYYCARDLVTYGLDVWGQGTTVTVSS VL: DIQLTQSPSFLSASVGDRVTITCRASQGISNYLAWYQQKPGTAPNLLIYAASTLQSGVPSRFSGSGSGTEFTLTISSLQPEDFATYYCQLLNSHPLTFGQGTRLEIK | binds
